From US20120058120A1, “Targets for Growth Factor Signalling and Methods of Therapy” (priority 2009, published 2012)

T1: FXIII (Homo sapiens, UniProt P00488)
T1 sequence (P00488 1-732): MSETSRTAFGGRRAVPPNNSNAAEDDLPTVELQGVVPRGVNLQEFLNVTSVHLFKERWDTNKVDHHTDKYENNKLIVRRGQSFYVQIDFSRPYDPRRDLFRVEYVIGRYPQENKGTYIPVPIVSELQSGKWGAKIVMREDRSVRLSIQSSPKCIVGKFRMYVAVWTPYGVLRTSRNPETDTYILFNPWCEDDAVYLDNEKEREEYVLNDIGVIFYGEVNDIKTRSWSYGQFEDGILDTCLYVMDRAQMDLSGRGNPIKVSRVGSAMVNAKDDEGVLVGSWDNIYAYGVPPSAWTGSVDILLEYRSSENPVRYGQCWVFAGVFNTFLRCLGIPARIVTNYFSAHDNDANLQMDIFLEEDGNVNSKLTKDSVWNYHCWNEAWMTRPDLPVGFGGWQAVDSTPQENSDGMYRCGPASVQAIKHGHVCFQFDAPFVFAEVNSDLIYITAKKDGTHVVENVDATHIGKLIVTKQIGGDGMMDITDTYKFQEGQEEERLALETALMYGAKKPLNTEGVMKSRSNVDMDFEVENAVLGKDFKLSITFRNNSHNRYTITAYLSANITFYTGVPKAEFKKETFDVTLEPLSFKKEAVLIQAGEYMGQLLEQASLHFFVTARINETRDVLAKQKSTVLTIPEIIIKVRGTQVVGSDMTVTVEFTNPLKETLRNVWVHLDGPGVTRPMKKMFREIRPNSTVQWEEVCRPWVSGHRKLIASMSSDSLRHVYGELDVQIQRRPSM

T2: TG2 (Homo sapiens, UniProt P21980)
T2 sequence (P21980 1-687): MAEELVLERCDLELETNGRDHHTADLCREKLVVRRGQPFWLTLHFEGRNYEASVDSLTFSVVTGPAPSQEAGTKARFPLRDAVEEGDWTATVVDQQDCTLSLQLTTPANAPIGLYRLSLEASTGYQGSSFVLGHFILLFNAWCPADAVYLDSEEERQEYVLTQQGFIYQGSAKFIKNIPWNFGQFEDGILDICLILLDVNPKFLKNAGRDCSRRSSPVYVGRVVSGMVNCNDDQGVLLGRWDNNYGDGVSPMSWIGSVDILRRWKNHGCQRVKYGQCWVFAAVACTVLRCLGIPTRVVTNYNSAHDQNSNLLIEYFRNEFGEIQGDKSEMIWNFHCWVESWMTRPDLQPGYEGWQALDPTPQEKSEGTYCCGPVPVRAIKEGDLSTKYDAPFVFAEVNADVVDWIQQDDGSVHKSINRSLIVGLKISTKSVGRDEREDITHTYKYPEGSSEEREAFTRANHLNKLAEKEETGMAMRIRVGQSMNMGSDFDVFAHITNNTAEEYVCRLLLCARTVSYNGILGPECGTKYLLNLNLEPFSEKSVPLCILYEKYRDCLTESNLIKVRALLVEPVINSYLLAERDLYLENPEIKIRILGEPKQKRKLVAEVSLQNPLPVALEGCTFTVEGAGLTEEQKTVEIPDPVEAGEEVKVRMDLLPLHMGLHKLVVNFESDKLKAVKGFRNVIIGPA

B1: factor XIII (FXIII) (protein)
chain: SETSRTAFGGRRAVPPNNSNAAEDDLPTVELQGVVPRGVNLQEFLNVTSVHLFKERWDTNKVDHHTDKYENNKLIVRRGQSFYVQIDFSRPYDPRRDLFRVEYVIGRYPQENKGTYIPVPIVSELQSGKWGAKIVMREDRSVRLSIQSSPKCIVGKFRMYVAVWTPYGVLRTSRNPETDTYILFNPWCEDDAVYLDNEKEREEYVLNDIGVIFYGEVNDIKTRSWSYGQFEDGILDTCLYVMDRAQMDLSGRGNPIKVSRVGSAMVNAKDDEGVLVGSWDNIYAYGVPPSAWTGSVDILLEYRSSENPVRYGQCWVFAGVFNTFLRCLGIPARIVTNYFSAHDNDANLQMDIFLEEDGNVNSKLTKDSVWNYHCWNEAWMTRPDLPVGFGGWQAVDSTPQENSDGMYRCGPASVQAIKHGHVCFQFDAPFVFAEVNSDLIYITAKKDGTHVVENVDATHIGKLIVTKQIGGDGMMDITDTYKFQEGQEEERLALETALMYGAKKPLNTEGVMKSRSNVDMDFEVENAVLGKDFKLSITFRNNSHNRYTITAYLSANITFYTGVPKAEFKKETFDVTLEPLSFKKEAVLIQAGEYMGQLLEQASLHFFVTARINETRDVLAKQKSTVLTIPEIIIKVRGTQVVGSDMTVTVEFTNPLKETLRNVWVHLDGPGVTRPMKKMFREIRPNSTVQWEEVCRPWVSGHRKLIASMSSDSLRHVYGELDVQIQRRPSM

How the values were obtained:
FXIII = target: T1, FXIII; assay: IGF-I incubated with FXIII and PEG functionalized with Q- or K-donor TG substrate peptide, IGF-I Western blot; type: biochemical; conditions: after 1 h; Q-donor vs K-donor PEG
Method: FIG. 1 (a) IGF-I Western blot after reaction for 60 minutes with FXIII and PEG derivatized with a glutamine (left lane) or lysine FXIII substrate (right lane). […] (b) 3D structure of IGF-I, with the putative FXIII site at the D domain shown relative to residues identified as important for receptor binding.
In the present experiments, IGF-I was incubated with FXIII and PEG functionalized with either a glutamine (Q)- or lysine (K)-donor TG substrate peptide.

TG2 [1] = target: T2, TG2; assay: Reaction of IGF-I with TG2, with or without the Gln-donor substrate glucagon; type: biochemical
From the text: FIG. 4 Reaction of IGF-I with glucagon catalysed by TG2. Lane 1: IGF-I control; 2: IGF-I+TG2; 3: TG2 control; 4: Gn control; 5: IGF-I+Gn; 6: TG2+Gn; 7: TG2+Gn+IGF-I. (Gn=glucagon)
In order to confirm this finding, we repeated this experiment using TG2 rather than FXIII, and the known TG2 Gln-donor substrate glucagon (Gn) as a probe (FIG. 4). […] The large band >75 kDa in lane 2 is apparently due to the formation of covalent complexes between IGF-I and TG2 itself; polymerization of IGF-I is also evident. Reaction of IGF-I with Gn (lane 7) also produced polymeric species. A band of MW consistent with (IGF-I)1Gn1 is indicated by an arrow.

TG2 [2] = target: T2, TG2; assay: TG2-catalysed crosslinking of IGF-I to recombinant extracellular domain of IGF1R, IGF-I Western blot; type: biochemical; conditions: TG2 0.70 μM, IGF-I 25 μg/mL, IGF1R 25 μg/mL, 1 hour, 1 mM CaCl2, pH 7.5
Method: TG2 (0.70 μM) was reacted with IGF-I (25 μg/mL) and/or recombinant extracellular domain of IGF1R (25 μg/mL; commercially available from R&D Systems) for 1 hour in the presence of 1 mM CaCl2, pH 7.5. At this point, the reaction was stopped by the addition of SDS-PAGE loading buffer. Samples were run through a 4%-12% SDS-PAGE gel, transferred to a PVDF membrane and probed for IGF-I using a goat anti-human IGF-I primary (1:5000 dilution) and HRP-conjugated rabbit anti-goat secondary (1:10,000), and visualised using chemiluminescence.
For it to be able to do this, both IGF-I and the IGF1R would have to be transglutaminase substrates. Because TG2 catalyses the formation of an isopeptide bond which is essentially as stable as a peptide backbone bond, the complex formed will not be broken apart under reducing SDS-PAGE conditions (whereas disulfide and non-covalent interactions will be broken).
So, in this assay we reacted IGF-I and the soluble recombinant extracellular portion of the receptor with TG2, and probed for where IGF-I ended up using a standard Western blot approach. The “smoking gun” for a reaction would be staining for IGF-I appearing at a molecular weight corresponding to […]. […]

[3] = target: insulin-like growth factor I (IGF-I), P05019
Chain of insulin-like growth factor I (IGF-I), P05019 (P05019 whole entry, looked up): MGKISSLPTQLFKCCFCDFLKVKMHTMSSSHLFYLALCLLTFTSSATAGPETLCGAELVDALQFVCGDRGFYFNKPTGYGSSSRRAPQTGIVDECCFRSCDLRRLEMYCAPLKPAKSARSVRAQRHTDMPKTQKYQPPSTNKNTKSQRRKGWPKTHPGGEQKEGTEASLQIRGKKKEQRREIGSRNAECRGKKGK

Row | Molecule | incorporation of IGF-I into TG substrate-functionalized PEG (FXIII) | products of reaction of IGF-I alone with TG2 (TG2 [1]; lane 2, IGF-I+TG2) | products of reaction of IGF-I with glucagon catalysed by TG2 (TG2 [1]; lane 7, TG2+Gn+IGF-I) | crosslinking of IGF-I to IGF1R by TG2 (TG2 [2]) | Western blot for IGF-I after 1 h reaction with FXIII and PEG carrying a glutamine- or lysine-donor TG substrate peptide [3]
1 | IGF-I: insulin-like growth factor I, tested as transglutaminase substrate | quantitatively incorporated into the Q-donor, but not the K-donor PEG | produced a series of bands corresponding to IGF-I oligomers | produced a wide range of molecular weight species | TG2 recognises sites on both the IGF1R and IGF-I, and is able to bind the two together | –
2 | B1 | – | – | – | – | after 1 h IGF-I was quantitatively incorporated into the Q-donor, but not the K-donor PEG
